Columns and labels:
Assay in all cases: purified protein
Conditions in all cases: pH 6.5, 55 °C, 10 min, sodium phosphate, metal-dependent enzyme
purified protein [1] = substrate: O=[N+]([O-])c1ccc(O[C@H]2OC[C@@H](O)[C@@H](O)[C@@H]2O)cc1
purified protein [2] = substrate: C[C@H]1O[C@@H](Oc2ccc([N+](=O)[O-])cc2)[C@H](O)[C@@H](O)[C@H]1O
purified protein [3] = substrate: O=[N+]([O-])c1ccc(O[C@H]2O[C@H](CO)[C@@H](O)[C@@H]2O)cc1
purified protein [4] = substrate: O=[N+]([O-])c1ccc(O[C@@H]2O[C@H](CO)[C@H](O)[C@H](O)[C@H]2O)cc1

B1: ThABF (Trichoderma harzianum) (protein)
chain: GPCDIYSSGGTPCVAAHSTTRALYSAYTGPLYQVKRGSDGATTTISPLSSGVANAAAQDSFCAGTTCLITIIYDQSGRGNHLTQAPPGGFNGPESNGYDNLASAIGAPVTLNGQKAYGVFISPGTGYRNNAASGTAKGDAAEGMYAVLDGTHYNGACCFDYGNAETSSRDTGNGHMEAIYYGDSTVWGTGSGNGPWIMADLENGLFSGSAVHNNAGDPSISYRFVTAAVKGQPNQWAIRGGNSASGSLSTFYNGARPSASGYNPMSKEGAIILGIGGDNSNGAQGTFYEGVMTSGYPSDATENSVQANIVAAKYAVTSLTSGPALTTGSSVSLRATTACCTTRYITHSGSTVNTQVVSSSSATAPKQQASWTVRAGLGNSGCFSFESKDTPGSYIRHNNFVLLLNANDGSKQFAEDATFCPQAGLNGQGSSLRAWGYPTRYFRHYDNVLYVASNGGVHTFDATGSFNDDVSFVISASFA
Purified protein [1]
  Km: 3.30 ± 0.16 mM
  kcat: 13.4 s⁻¹
  kcat/Km: 4070 M⁻¹ s⁻¹
Purified protein [2]
  Km: 6.51 ± 1.00 mM
  kcat: 35.7 s⁻¹
  kcat/Km: 5480 M⁻¹ s⁻¹
Purified protein [3]
  Km: 6.75 ± 3.24 mM
  kcat: 1.61 s⁻¹
  kcat/Km: 238 M⁻¹ s⁻¹
Purified protein [4]
  Km: 1.68 ± 0.12 mM
  kcat: 35.5 s⁻¹
  kcat/Km: 21100 M⁻¹ s⁻¹

Reference: article PMC8155123, “A novel fungal metal-dependent α-L-arabinofuranosidase of family 54 glycoside hydrolase shows expanded substrate specificity” (Scientific Reports, 2021)
